{
  "source": "ChEMBL document CHEMBL2073843",
  "about": "“Characterization of the role of polar amino acid residues within predicted transmembrane helix 17 in determining the substrate specificity of multidrug resistance protein 3” (Biochemistry, 2003)",
  "proteins": {"B1": {"name": "Multidrug resistance associated protein (Homo sapiens), Q96QA9 (protein)", "chain": "MDALCGSGELGSKFWDSNLSVHTENPDLTPCFQNSLLAWVPCIYLWVALPCYLLYLRHHCRGYIILSHLSKLKMVLGVLLWCVSWADLFYSFHGLVHGRAPAPVFFVTPLVVGVTMLLATLLIQYERLQGVQSSGVLIIFWFLCVVCAIVPFRSKILLAKAEGEISDPFRFTTFYIHFALVLSALILACFREKPPFFSAKNVDPNPYPETSAGFLSRLFFWWFTKMAIYGYRHPLEEKDLWSLKEEDRSQMVVQQLLEAWRKQEKQTARHKASAAPGKNASGEDEVLLGARPRPRKPSFLKALLATFGSSFLISACFKLIQDLLSFINPQLLSILIRFISNPMAPSWWGFLVAGLMFLCSMMQSLILQHYYHYIFVTGVKFRTGIMGVIYRKALVITNSVKRASTVGEIVNLMSVDAQRFMDLAPFLNLLWSAPLQIILAIYFLWQNLGPSVLAGVAFMVLLIPLNGAVAVKMRAFQVKQMKLKDSRIKLMSEILNGIKVLKLYAWEPSFLKQVEGIRQGELQLLRTAAYLHTTTTFTWMCSPFLVTLITLWVYVYVDPNNVLDAEKAFVSVSLFNILRLPLNMLPQLISNLTQASVSLKRIQQFLSQEELDPQSVERKTISPGYAITIHSGTFTWAQDLPPTLHSLDIQVPKGALVAVVGPVGCGKSSLVSALLGEMEKLEGKVHMKGSVAYVPQQAWIQNCTLQENVLFGKALNPKRYQQTLEACALLADLEMLPGGDQTEIGEKGINLSGGQRQRVSLARAVYSDADIFLLDDPLSAVDSHVAKHIFDHVIGPEGVLAGKTRVLVTHGISFLPQTDFIIVLADGQVSEMGPYPALLQRNGSFANFLCNYAPDEDQGHLEDSWTALEGAEDKEALLIEDTLSNHTDLTDNDPVTYVVQKQFMRQLSALSSDGEGQGRPVPRRHLGPSEKVQVTEAKADGALTQEEKAAIGTVELSVFWDYAKAVGLCTTLAICLLYVGQSAAAIGANVWLSAWTNDAMADSRQNNTSLRLGVYAALGILQGFLVMLAAMAMAAGGIQAARVLHQALLHNKIRSPQSFFDTTPSGRILNCFSKDIYVVDEVLAPVILMLLNSFFNAISTLVVIMASTPLFTVVILPLAVLYTLVQRFYAATSRQLKRLESVSRSPIYSHFSETVTGASVIRAYNRSRDFEIISDTKVDANQRSCYPYIISNRWLSIGVEFVGNCVVLFAALFAVIGRSSLNPGLVGLSVSYSLQVTFALNWMIRMMSDLESNIVAVERVKEYSKTETEAPWVVEGSRPPEGWPPRGEVEFRNYSVRYRPGLDLVLRDLSLHVHGGEKVGIVGRTGAGKSSMTLCLFRILEAAKGEIRIDGLNVADIGDPILFSGTLRMNLDPFGSYSEEDIWWALELSHLHTFVSSQPAGLDFQCSEGGENLSVGQRQLVCLARALLRKSRILVLDEATAAIDLETDNLIQATIRTQFDTCTVLTIAHRLNTIMDYTRVLVLDKGVVAEFDSPANLIAARGIFYGMARDAGLA"}},
  "substrate": "C[C@]12CC[C@@H]3c4ccc(O)cc4CC[C@H]3[C@@H]1CC[C@@H]2O[C@@H]1O[C@H](C(=O)O)[C@@H](O)[C@H](O)[C@H]1O",
  "conditions": "HEK293; Membrane vesicle",
  "description": "TP_TRANSPORTER: uptake in membrane vesicles from MRP3-expressing HEK cells",
  "data": [
    {"protein": "B1", "values": [
      {"measurement": "Km", "value": 29, "unit": "µM"}
    ]}
  ]
}
